Test results as given in article doi:10.1101/2022.02.08.479534, “FoxP3 can fold into two distinct dimerization states with divergent functional implications for T cell homeostasis”.

Experiments:
FoxP3ΔN = target: T1, FoxP3ΔN (Mus musculus, UniProt Q99JB6 188-423); experiment: EMSA; up to 0.8 uM; nearly undetectable; EMSA: 0.2 uM DNA, 20 mM Tris pH 7.5, 150 mM NaCl, 1.5 mM MgCl2, 2 mM DTT, 30 min at 4 C; anti-HA bead DNA pull-down: 20 min at room temperature; the EMSA IR-FKHM4g length is taken as 31 bp; conditions: protein: recombinant; tags: His6-NusA cleaved (HRV3C); chain copies: 2; blunt
T1 sequence: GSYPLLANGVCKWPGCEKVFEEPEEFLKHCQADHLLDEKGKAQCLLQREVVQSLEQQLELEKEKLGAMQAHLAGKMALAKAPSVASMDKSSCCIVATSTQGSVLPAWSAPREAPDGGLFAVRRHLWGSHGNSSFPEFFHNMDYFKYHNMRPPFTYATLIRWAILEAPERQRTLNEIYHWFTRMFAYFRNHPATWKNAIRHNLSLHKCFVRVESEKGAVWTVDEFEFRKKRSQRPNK

NusA-FoxP4RBR-forkhead = target: T2, NusA-FoxP4RBR-forkhead (Mus musculus, UniProt Q9DBY0 418-577); experiment: EMSA; equal to IR-FKHM4g; EMSA: 0.2 uM DNA, 20 mM Tris pH 7.5, 150 mM NaCl, 1.5 mM MgCl2, 2 mM DTT, 30 min at 4 C; anti-HA bead DNA pull-down: 20 min at room temperature; the EMSA IR-FKHM4g length is taken as 31 bp; conditions: protein: recombinant; tags: His6-NusA; blunt
T2 sequence: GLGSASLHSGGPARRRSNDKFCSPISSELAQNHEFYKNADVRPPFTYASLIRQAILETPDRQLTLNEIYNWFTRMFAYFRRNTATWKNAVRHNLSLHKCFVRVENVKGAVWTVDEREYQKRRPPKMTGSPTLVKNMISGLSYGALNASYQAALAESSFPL

NusA-FoxP1RBR-forkhead = target: T3, NusA-FoxP1RBR-forkhead (Mus musculus, UniProt P58462 433-579); experiment: as above; conditions: protein: recombinant; tags: His6-NusA; blunt
T3 sequence: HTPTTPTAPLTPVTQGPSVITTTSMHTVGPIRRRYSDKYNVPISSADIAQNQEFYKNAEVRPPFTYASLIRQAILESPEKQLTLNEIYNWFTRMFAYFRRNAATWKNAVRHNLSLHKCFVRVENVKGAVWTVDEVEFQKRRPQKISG

NusA-FoxP2RBR-forkhead = target: T4, NusA-FoxP2RBR-forkhead (Mus musculus, UniProt P58463 447-588); experiment: as above; conditions: protein: recombinant; tags: His6-NusA; blunt
T4 sequence: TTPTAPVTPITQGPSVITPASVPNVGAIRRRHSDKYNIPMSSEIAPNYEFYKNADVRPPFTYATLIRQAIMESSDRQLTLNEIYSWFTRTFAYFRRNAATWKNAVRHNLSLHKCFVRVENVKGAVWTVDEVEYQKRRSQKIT

MBP-FoxP3ΔN [1] = target: T5, MBP-FoxP3ΔN (Mus musculus, UniProt Q99JB6 188-423); experiment: MBP pull-down; EMSA: 0.2 uM DNA, 20 mM Tris pH 7.5, 150 mM NaCl, 1.5 mM MgCl2, 2 mM DTT, 30 min at 4 C; anti-HA bead DNA pull-down: 20 min at room temperature; the EMSA IR-FKHM4g length is taken as 31 bp; conditions: protein: recombinant; tags: His6-MBP; blunt
T5 sequence: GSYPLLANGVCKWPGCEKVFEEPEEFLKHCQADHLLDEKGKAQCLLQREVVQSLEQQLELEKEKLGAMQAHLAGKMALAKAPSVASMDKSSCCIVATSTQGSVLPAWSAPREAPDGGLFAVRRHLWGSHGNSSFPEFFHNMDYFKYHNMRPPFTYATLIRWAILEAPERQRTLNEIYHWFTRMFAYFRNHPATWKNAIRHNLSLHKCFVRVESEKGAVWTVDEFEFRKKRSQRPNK

MBP-FoxP3ΔN [2] = target: T5, MBP-FoxP3ΔN; experiment: MBP pull-down; not efficiently bound; EMSA: 0.2 uM DNA, 20 mM Tris pH 7.5, 150 mM NaCl, 1.5 mM MgCl2, 2 mM DTT, 30 min at 4 C; anti-HA bead DNA pull-down: 20 min at room temperature; the EMSA IR-FKHM4g length is taken as 31 bp; conditions: protein: recombinant; tags: His6-MBP; blunt
FoxP3ΔN;NFAT1 (394-680) [3] = target: T6, FoxP3ΔN;NFAT1 (394-680) (Mus musculus;Mus musculus, UniProt Q99JB6;Q60591 188-423;394-680, |); experiment: restriction enzyme protection; 3.2 uM FoxP3, 0.4 uM NFAT; XhoI protected, BamHI accessible; EMSA: 0.2 uM DNA, 20 mM Tris pH 7.5, 150 mM NaCl, 1.5 mM MgCl2, 2 mM DTT, 30 min at 4 C; anti-HA bead DNA pull-down: 20 min at room temperature; the EMSA IR-FKHM4g length is taken as 31 bp; conditions: protein: recombinant;recombinant; tags: His6-NusA cleaved (HRV3C);His6-NusA cleaved; blunt
T6 sequence 1: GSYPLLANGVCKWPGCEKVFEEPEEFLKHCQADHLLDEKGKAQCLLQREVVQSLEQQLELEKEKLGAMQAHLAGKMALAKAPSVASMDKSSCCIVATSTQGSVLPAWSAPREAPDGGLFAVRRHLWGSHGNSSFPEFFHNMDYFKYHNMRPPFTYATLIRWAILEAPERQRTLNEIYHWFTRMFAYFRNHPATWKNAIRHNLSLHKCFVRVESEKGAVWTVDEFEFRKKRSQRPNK
T6 sequence 2: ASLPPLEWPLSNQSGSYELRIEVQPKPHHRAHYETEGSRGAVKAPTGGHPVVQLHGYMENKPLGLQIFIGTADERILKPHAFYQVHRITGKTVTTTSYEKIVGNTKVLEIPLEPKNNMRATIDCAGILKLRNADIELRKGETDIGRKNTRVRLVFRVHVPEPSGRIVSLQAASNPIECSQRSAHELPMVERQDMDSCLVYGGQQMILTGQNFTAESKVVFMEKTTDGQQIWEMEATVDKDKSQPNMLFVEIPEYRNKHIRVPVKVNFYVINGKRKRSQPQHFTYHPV

MBP-FoxP3ΔN [4] = target: T5, MBP-FoxP3ΔN; experiment: MBP pull-down; strong; EMSA: 0.2 uM DNA, 20 mM Tris pH 7.5, 150 mM NaCl, 1.5 mM MgCl2, 2 mM DTT, 30 min at 4 C; anti-HA bead DNA pull-down: 20 min at room temperature; the EMSA IR-FKHM4g length is taken as 31 bp; conditions: protein: recombinant; tags: His6-MBP; blunt
FoxP3ΔN;NFAT1 (394-680) [5] = target: T6, FoxP3ΔN;NFAT1 (394-680); experiment: restriction enzyme protection; 1.6 uM FoxP3, 0.4 uM NFAT; XhoI and BamHI protected, EcoRI accessible; EMSA: 0.2 uM DNA, 20 mM Tris pH 7.5, 150 mM NaCl, 1.5 mM MgCl2, 2 mM DTT, 30 min at 4 C; anti-HA bead DNA pull-down: 20 min at room temperature; the EMSA IR-FKHM4g length is taken as 31 bp; conditions: protein: recombinant;recombinant; tags: His6-NusA cleaved (HRV3C);His6-NusA cleaved; blunt

B1: sFKHM (31bp) (dsDNA)
DNA 1: TTAGGAAAATTTGTTTACTCGACGCGGCAAA
DNA 2: TTTGCCGCGTCGAGTAAACAAATTTTCCTAA
FoxP3ΔN
  binding result: no binding
NusA-FoxP4RBR-forkhead
  binding result: binds
NusA-FoxP1RBR-forkhead
  binding result: binds
NusA-FoxP2RBR-forkhead
  binding result: binds

B2: IR-seq1 (dsDNA)
DNA 1: ATTTCGCGTCTCGAGACGCGAAAT
DNA 2: ATTTCGCGTCTCGAGACGCGAAAT
MBP-FoxP3ΔN [1]
  binding result: no binding

B3: IR-seq9 (dsDNA)
DNA 1: TTAGGAAAATTTGTTTTATCGATAAAACAAA
DNA 2: TTTGTTTTATCGATAAAACAAATTTTCCTAA
MBP-FoxP3ΔN [2]
  binding result: no binding

B4: IR-seq2 (dsDNA)
DNA 1: ATTTTGCGTCTCGAGACGCAAAAT
DNA 2: ATTTTGCGTCTCGAGACGCAAAAT
MBP-FoxP3ΔN [1]
  binding result: no binding

B5: FKHM-seq2 (dsDNA)
DNA 1: ATTTGTTTACTCGAGACGCAAAAT
DNA 2: ATTTTGCGTCTCGAGTAAACAAAT
MBP-FoxP3ΔN [1]
  binding result: binds

B6: IR-FKHM11g (54bp) (dsDNA)
DNA 1: TTAGGAAAATTTGTTTACTCGAGTGTACGGTAAACAGTGGATCCGAATTCATAT
DNA 2: ATATGAATTCGGATCCACTGTTTACCGTACACTCGAGTAAACAAATTTTCCTAA
FoxP3ΔN;NFAT1 (394-680) [3]
  binding result: binds

B7: FKHM-seq8 (dsDNA)
DNA 1: TTAGGAAAATTTGTTTACTCGAGGAAACAAA
DNA 2: TTTGTTTCCTCGAGTAAACAAATTTTCCTAA
MBP-FoxP3ΔN [1]
  binding result: binds

B8: IR-seq11 (dsDNA)
DNA 1: TTAGGAAAATTTGTTTAATCGATTAAACAAA
DNA 2: TTTGTTTAATCGATTAAACAAATTTTCCTAA
MBP-FoxP3ΔN [2]
  binding result: no binding

B9: FKHM-seq9 (dsDNA)
DNA 1: TTAGGAAAATTTGTTTACTCGATAAAACAAA
DNA 2: TTTGTTTTATCGAGTAAACAAATTTTCCTAA
MBP-FoxP3ΔN [1]
  binding result: binds

B10: FKHM-seq11 (dsDNA)
DNA 1: TTAGGAAAATTTGTTTACTCGATTAAACAAA
DNA 2: TTTGTTTAATCGAGTAAACAAATTTTCCTAA
MBP-FoxP3ΔN [1]
  binding result: binds

B11: IR-seq8 (dsDNA)
DNA 1: TTAGGAAAATTTGTTTCCTCGAGGAAACAAA
DNA 2: TTTGTTTCCTCGAGGAAACAAATTTTCCTAA
MBP-FoxP3ΔN [2]
  binding result: no binding

B12: FKHM-seq1 (dsDNA)
DNA 1: ATTTGTTTACTCGAGACGCGAAAT
DNA 2: ATTTCGCGTCTCGAGTAAACAAAT
MBP-FoxP3ΔN [1]
  binding result: binds

B13: FKHM-seq5 (dsDNA)
DNA 1: TTAGGAAAATTTGTTTACTCGAAATGCAAAA
DNA 2: TTTTGCATTTCGAGTAAACAAATTTTCCTAA
MBP-FoxP3ΔN [1]
  binding result: binds

B14: FKHM-seq3 (dsDNA)
DNA 1: ATTTGTTTACTCGAGATGCATCAT
DNA 2: ATGATGCATCTCGAGTAAACAAAT
MBP-FoxP3ΔN [1]
  binding result: binds

B15: Major FKHM-seq5 (dsDNA)
DNA 1: AAATGTTTACTAGGAATGCAATGA
DNA 2: TCATTGCATTCCTAGTAAACATTT
MBP-FoxP3ΔN [1]
  binding result: binds

B16: Major seq8-seq9 (dsDNA)
DNA 1: GTTTGTTTCCCAGGTAAAACAACC
DNA 2: GGTTGTTTTACCTGGGAAACAAAC
MBP-FoxP3ΔN [4]
  binding result: binds

B17: IR-seq3 (dsDNA)
DNA 1: ATGATGCATCTCGAGATGCATCAT
DNA 2: ATGATGCATCTCGAGATGCATCAT
MBP-FoxP3ΔN [1]
  binding result: no binding

B18: sFKHM (22bp) (dsDNA)
DNA 1: TTAGGAAAATTTGTTTACTCGA
DNA 2: TCGAGTAAACAAATTTTCCTAA
FoxP3ΔN
  binding result: no binding

B19: IR-seq5 (dsDNA)
DNA 1: TTAGGAAAATTTTGCATTTCGAAATGCAAAA
DNA 2: TTTTGCATTTCGAAATGCAAAATTTTCCTAA
MBP-FoxP3ΔN [2]
  binding result: no binding

B20: IR-FKHM4g (47bp) (dsDNA)
DNA 1: TTAGGAAAATTTGTTTACTCGAGTAAACAGTGGATCCGAATTCATAT
DNA 2: ATATGAATTCGGATCCACTGTTTACTCGAGTAAACAAATTTTCCTAA
FoxP3ΔN;NFAT1 (394-680) [5]
  binding result: binds
